Among the data in patent US20260240994A1 (MAYO FOUNDATION FOR MEDICAL EDUCATION AND RESEARCH, published 2026) are binding result and Kd values, retold here.

Assay [1] addresses T1, Recombinant Human E-cadherin Fc chimera (BioLegend) (human, UniProt P12830 155-707).
T1 construct: also called human Ecad Fc chimeric protein; recombinant human Ecad Fc chimera; Fc part of the bought chimera not given
T1 sequence (looked up): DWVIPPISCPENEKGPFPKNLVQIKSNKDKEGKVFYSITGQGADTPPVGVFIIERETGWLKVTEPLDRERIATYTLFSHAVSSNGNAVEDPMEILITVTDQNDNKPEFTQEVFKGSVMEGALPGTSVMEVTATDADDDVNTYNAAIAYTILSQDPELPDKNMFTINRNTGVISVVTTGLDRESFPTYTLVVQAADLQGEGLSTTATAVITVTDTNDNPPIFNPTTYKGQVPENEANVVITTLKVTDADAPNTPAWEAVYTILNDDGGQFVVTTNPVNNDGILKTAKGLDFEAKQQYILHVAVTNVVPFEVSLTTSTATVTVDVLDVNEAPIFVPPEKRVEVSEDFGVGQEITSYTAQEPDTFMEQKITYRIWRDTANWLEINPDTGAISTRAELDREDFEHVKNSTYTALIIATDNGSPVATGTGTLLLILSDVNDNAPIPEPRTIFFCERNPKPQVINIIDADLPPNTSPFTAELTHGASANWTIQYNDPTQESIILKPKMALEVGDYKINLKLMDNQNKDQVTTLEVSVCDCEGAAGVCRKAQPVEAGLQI
Description: phage display panning. From the text: (§1) hmcECAD.6 scFv sequence was generated and optimized for binding to Ecad protein through phage display library selection. A naive human scFv library of approximately 2×10⁹ diversity was used to screen against recombinant Ecad protein (Biomolecular Discovery, Rochester, NY). The hmcECAD.6 scFv clone was identified after two rounds of screening against mouse Ecad followed by another round of panning on human Ecad Fc chimeric protein (both from BioLegend, San Diego, CA). […] Final hmcECAD.6 sequence (SEQ ID NO: 90) was codon optimized for cloning of heavy and light chain into EcCAR plasmid.

In assay [2] the target is T2, mouse Ecad (recombinant protein, BioLegend) (mouse, UniProt P09803 157-709, limits assumed).
T2 construct: Bought recombinant protein; Also used here for the general statements of mouse cross-reactivity; also called mouse E-cadherin
T2 sequence (looked up): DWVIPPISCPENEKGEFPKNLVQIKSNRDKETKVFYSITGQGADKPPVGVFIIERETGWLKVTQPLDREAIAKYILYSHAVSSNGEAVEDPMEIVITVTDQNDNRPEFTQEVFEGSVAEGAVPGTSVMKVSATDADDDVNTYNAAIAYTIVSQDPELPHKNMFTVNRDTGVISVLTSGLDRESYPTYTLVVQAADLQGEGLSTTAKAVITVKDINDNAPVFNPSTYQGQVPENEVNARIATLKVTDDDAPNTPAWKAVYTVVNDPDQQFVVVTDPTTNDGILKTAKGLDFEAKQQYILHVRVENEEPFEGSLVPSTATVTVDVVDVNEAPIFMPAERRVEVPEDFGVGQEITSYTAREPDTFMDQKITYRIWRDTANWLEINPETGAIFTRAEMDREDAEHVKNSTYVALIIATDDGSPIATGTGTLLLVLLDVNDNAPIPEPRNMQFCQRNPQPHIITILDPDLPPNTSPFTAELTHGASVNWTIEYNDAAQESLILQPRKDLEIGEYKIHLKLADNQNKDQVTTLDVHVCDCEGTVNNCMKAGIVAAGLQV
The assay is described as follows: phage ELISA; relative affinity estimated against the FLAG antibody signal.
Excerpt: as §1

B1: hmcECAD.6 scFv clone (scFv)
scFv: LPVLTQPPSASGTPGQRVTISCSGSSSNIGSNYVYWYQQLPGTAPKLLIYRNNQRPSGVPDRFSGSKSGTSASLAISGLQSEDEADYYCASWDTSLRAWVFGGGTKLTVLGEGKSSGSGSESKASEVQLVQSGGGLVQPGGSLRLSCAASGFTFSSYSMNWVRQAPGKGLEWVSYISSSSSTIYYVDSVKGRFTISRDNAKNSLYLQMDSLRAEDTAVYYCARGGRVLVGALFDYWGQGTLVTVSS
notes: Human scFv from a naive phage display library; also called anti-hmcECAD.6; anti-Ecad scFv
As usually defined, the Kd is the concentration at which binding is half-saturated. For the molecule B1, the binding result in assay [1] was “binds”. Moreover, the dissociation constant Kd in assay [2] was about 5 nM.
